{"source": "paper PMC2832019", "about": "“In Vitro Metabolic and Mitogenic Signaling of Insulin Glargine and Its Metabolites” (PLoS ONE, 2010)", "origin": "cited, not measured here", "test_system": "Sprague-Dawley rats", "conditions": "rat, in vivo; cited from earlier work"}
{"substance": "[Asp^B10]insulin", "values": [{"measurement": "incidence of breast cancer", "result": "higher incidence of breast cancer"}]}
